Test system: IRF
Test: IRF reporter assay in isogenic cGAS-, STING- and IRF-deficient macrophages
Format: cell-based
Conditions: IRF-deficient macrophages, FIG. 2D
From the text: (A) ICP-MS to quantify cellular level of gold in cells treated with ISD45-SNAs. (B-D) Luciferase reporter assay to quantify IRF induction in RAW-Lucia™ macrophages (B), THP cells (C), and in WT, cGAS-, STING- and IRF-deficient RAW-Lucia™ macrophages. TFX, transfection agent. Median+/−standard deviation is shown. *p<0.05. (E) Multiplex ELISA-based and (F) antibody array-based cytokine profiling in RAW-Lucia™ macrophages.
To exploit the SNA architecture for cGAS activation, we synthesized ISD45-SNAs by conjugating 13 nm gold nanoparticles with 45 base pair (bp) dsISD oligonucleotides (ISD^45-SNAs; FIG. 1A), as 45 bp ISD oligonucleotides represent the most used and widely characterized cGAS activator^7. The terms “dsISD^45” and “ISD^45” are interchangeable as used herein. Citrate-stabilized gold nanoparticles were prepared using the Frens method^4,8,9. […] In addition, by generating melting curves, using an OliGreen fluorescence assay, and determining the zeta potential, oligonucleotide incorporation was quantified^4,8,9. […] Upon cGAS enzyme deactivation, the mixture was added to cGAS-deficient RAW-Lucia™ macrophages, carrying stable integration of an IRF-inducible Lucia luciferase reporter to quantify IRF induction luminometrically. […]

B1: ISD-45: free 45 bp interferon-stimulatory dsDNA oligonucleotide, the most used and widely characterized cGAS activator (nucleic acid)
sense: TACAGATCTACTAGTGATCTATGACTGATCTGTACATGATCTACA
antisense: ACATCTAGTACATGTCTAGTCAGTATCTAGTGATCATCAGACA
modifications: DNA, backbone and methylation of C not given here
- IRF induction in the absence of STING, cGAS or IRF: blunted

Reference: patent US20250002921A1, “SPHERICAL NUCLEIC ACIDS FOR cGAS-STING AND STAT3 PATHWAY MODULATION FOR THE IMMUNOTHERAPEUTIC TREATMENT OF CANCER” (NORTHWESTER UNIVERSITY, priority 2021, published 2025)
